# How the values were obtained:
# [1] = target: parvovirus antigen (target of Parvovirus-Ab); assay: specific antibody content of the polyclonal IgG preparation; assay not described
# [2] = target: diphtheria toxin (target of Diphteria antitoxin) (UniProt P00588); assay: as above
# [3] = target: FcγRIIa (CD32a) (human) (UniProt P12318)
# [4] = target: FcRn (human) (UniProt P55899)
# [5] = target: FcγRIIIa (CD16a) (human) (UniProt P08637)
# [6] = target: FcγRI (CD64) (human) (UniProt P12314)
# [7] = target: FcγRIIb/c (CD32b/c) (human) (UniProt P31994)
# UniProt P00588, sequence (P00588 33-567 limits assumed): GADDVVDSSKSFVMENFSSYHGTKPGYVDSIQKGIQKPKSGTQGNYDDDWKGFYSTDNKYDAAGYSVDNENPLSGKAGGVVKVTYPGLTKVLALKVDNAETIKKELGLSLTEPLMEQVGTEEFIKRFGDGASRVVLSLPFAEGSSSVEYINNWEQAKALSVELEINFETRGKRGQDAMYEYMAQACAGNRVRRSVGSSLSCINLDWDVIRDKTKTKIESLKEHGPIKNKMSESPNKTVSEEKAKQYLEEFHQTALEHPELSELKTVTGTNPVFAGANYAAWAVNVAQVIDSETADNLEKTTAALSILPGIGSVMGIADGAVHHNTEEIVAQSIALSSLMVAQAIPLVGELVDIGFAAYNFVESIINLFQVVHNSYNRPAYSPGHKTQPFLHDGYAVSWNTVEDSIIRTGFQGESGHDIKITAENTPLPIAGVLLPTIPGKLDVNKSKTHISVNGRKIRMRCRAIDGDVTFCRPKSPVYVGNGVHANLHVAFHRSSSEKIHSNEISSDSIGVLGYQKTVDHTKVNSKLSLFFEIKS
substance,measurement,setting,value
IgG (Hizentra) (antibody),Parvovirus-Ab (IU/mL),[1]; original Hizentra formulation,595 IU/mL
same,Parvovirus-Ab (IU/mL),[1]; re-formulated Hizentra,509 IU/mL
same,Diphteria antitoxin (IU/mL),[2],18.1 IU/mL
same,Kd,[3],213 nM
same,koff,[3],0.055 s⁻¹
same,kon,[3],260000 M⁻¹ s⁻¹
same,Kd,[4],1 nM
same,koff,[4],0.0025 s⁻¹
same,kon,[4],2.5e+06 M⁻¹ s⁻¹
same,Kd,[5],496 nM
same,koff,[5],0.036 s⁻¹
same,kon,[5],73000 M⁻¹ s⁻¹
same,Kd,[6],19.7 nM
same,koff,[6],0.0017 s⁻¹
same,kon,[6],87000 M⁻¹ s⁻¹
same,Kd,[7],2700 nM
